From paper PMC4609182 (The EMBO Journal, 2015)

Target: T1, UbcH7 (E2 ubiquitin-conjugating enzyme) (UniProt P68036 1-154)
Assay: ITC; Parkin constructs titrated with UbcH7; 20°C; 50 mM Tris–HCl pH 7.4, 150 mM NaCl, 1 mM TCEP; stoichiometry fixed to 1:1
Settings: both partners purified

T1 sequence (P68036 whole entry): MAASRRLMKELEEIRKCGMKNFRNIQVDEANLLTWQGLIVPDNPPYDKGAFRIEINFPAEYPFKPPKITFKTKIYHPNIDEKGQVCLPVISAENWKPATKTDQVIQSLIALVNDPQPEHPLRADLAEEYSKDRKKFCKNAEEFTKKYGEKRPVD

Kd | Binder
> 700000 nM | Parkin R0RBR module (RING0, RING1, IBR, RING2), wild type (domain or fragment, rat) PTYHSFFVYCKGPCHKVQPGKLRVQCGTCRQATLTLAQGPSCWDDVLIPNRMSGECQSPDCPGTRAEFFFKCGAHPTSDKDTSVALNLITNNSRSIPCIACTDVRNPVLVFQCNHRHVICLDCFHLYCVTRLNDRQFVHDAQLGYSLPCVAGCPNSLIKELHHFRILGEEQYNRYQQYGAEECVLQMGGVLCPRPGCGAGLLPEQGQKKVTCEGGNGLGCGFVFCRDCKEAYHEGECDSMFEASGATSQAYRVDQRAAEQARWEEASKETIKKTTKPCPRCNVPIEKNGGCMHMKCPQPQCKLEWCWNCGCEWNRACMGDHWFDV
119000 nM | W403A Parkin R0RBR (domain or fragment, rat) PTYHSFFVYCKGPCHKVQPGKLRVQCGTCRQATLTLAQGPSCWDDVLIPNRMSGECQSPDCPGTRAEFFFKCGAHPTSDKDTSVALNLITNNSRSIPCIACTDVRNPVLVFQCNHRHVICLDCFHLYCVTRLNDRQFVHDAQLGYSLPCVAGCPNSLIKELHHFRILGEEQYNRYQQYGAEECVLQMGGVLCPRPGCGAGLLPEQGQKKVTCEGGNGLGCGFVFCRDCKEAYHEGECDSMFEASGATSQAYRVDQRAAEQARAEEASKETIKKTTKPCPRCNVPIEKNGGCMHMKCPQPQCKLEWCWNCGCEWNRACMGDHWFDV

Target: Phosphorylated ubiquitin (phospho-Ser65 ubiquitin) (UniProt P0CG48 1-76, phosphoserine at 65)
Assay: ITC; Parkin constructs titrated with pUb; 20°C; 50 mM Tris–HCl pH 7.4, 150 mM NaCl, 1 mM TCEP; stoichiometry determined experimentally
Settings: both partners purified

Kd | Binder
1330 nM | H302A Parkin R0RBR (domain or fragment, rat) PTYHSFFVYCKGPCHKVQPGKLRVQCGTCRQATLTLAQGPSCWDDVLIPNRMSGECQSPDCPGTRAEFFFKCGAHPTSDKDTSVALNLITNNSRSIPCIACTDVRNPVLVFQCNHRHVICLDCFHLYCVTRLNDRQFVHDAQLGYSLPCVAGCPNSLIKELAHFRILGEEQYNRYQQYGAEECVLQMGGVLCPRPGCGAGLLPEQGQKKVTCEGGNGLGCGFVFCRDCKEAYHEGECDSMFEASGATSQAYRVDQRAAEQARWEEASKETIKKTTKPCPRCNVPIEKNGGCMHMKCPQPQCKLEWCWNCGCEWNRACMGDHWFDV
22 nM | Parkin R0RBR module (RING0, RING1, IBR, RING2), wild type (domain or fragment, rat) PTYHSFFVYCKGPCHKVQPGKLRVQCGTCRQATLTLAQGPSCWDDVLIPNRMSGECQSPDCPGTRAEFFFKCGAHPTSDKDTSVALNLITNNSRSIPCIACTDVRNPVLVFQCNHRHVICLDCFHLYCVTRLNDRQFVHDAQLGYSLPCVAGCPNSLIKELHHFRILGEEQYNRYQQYGAEECVLQMGGVLCPRPGCGAGLLPEQGQKKVTCEGGNGLGCGFVFCRDCKEAYHEGECDSMFEASGATSQAYRVDQRAAEQARWEEASKETIKKTTKPCPRCNVPIEKNGGCMHMKCPQPQCKLEWCWNCGCEWNRACMGDHWFDV
17 nM | Phosphorylated Parkin (phospho-Ser65 in the Ubl domain) (enzyme, rat, UniProt Q9JK66 1-465, looked up, phosphoserine at 65) MIVFVRFNSSYGFPVEVDSDTSIFQLKEVVAKRQGVPADQLRVIFAGKELQNHLTVQNCDLEQQSIVHIVQRPQRKSHETNASGGDKPQSTPEGSIWEPRSLTRVDLSSHILPADSVGLAVILDTDSKSDSEAARGPEAKPTYHSFFVYCKGPCHKVQPGKLRVQCGTCRQATLTLAQGPSCWDDVLIPNRMSGECQSPDCPGTRAEFFFKCGAHPTSDKDTSVALNLITNNSRSIPCIACTDVRNPVLVFQCNHRHVICLDCFHLYCVTRLNDRQFVHDAQLGYSLPCVAGCPNSLIKELHHFRILGEEQYNRYQQYGAEECVLQMGGVLCPRPGCGAGLLPEQGQKKVTCEGGNGLGCGFVFCRDCKEAYHEGECDSMFEASGATSQAYRVDQRAAEQARWEEASKETIKKTTKPCPRCNVPIEKNGGCMHMKCPQPQCKLEWCWNCGCEWNRACMGDHWFDV
431 nM | Full-length Parkin, unmodified (enzyme, rat, UniProt Q9JK66 1-465, looked up) MIVFVRFNSSYGFPVEVDSDTSIFQLKEVVAKRQGVPADQLRVIFAGKELQNHLTVQNCDLEQQSIVHIVQRPQRKSHETNASGGDKPQSTPEGSIWEPRSLTRVDLSSHILPADSVGLAVILDTDSKSDSEAARGPEAKPTYHSFFVYCKGPCHKVQPGKLRVQCGTCRQATLTLAQGPSCWDDVLIPNRMSGECQSPDCPGTRAEFFFKCGAHPTSDKDTSVALNLITNNSRSIPCIACTDVRNPVLVFQCNHRHVICLDCFHLYCVTRLNDRQFVHDAQLGYSLPCVAGCPNSLIKELHHFRILGEEQYNRYQQYGAEECVLQMGGVLCPRPGCGAGLLPEQGQKKVTCEGGNGLGCGFVFCRDCKEAYHEGECDSMFEASGATSQAYRVDQRAAEQARWEEASKETIKKTTKPCPRCNVPIEKNGGCMHMKCPQPQCKLEWCWNCGCEWNRACMGDHWFDV
37 nM | Full-length L266K Parkin (enzyme, rat, UniProt Q9JK66 1-465, looked up) MIVFVRFNSSYGFPVEVDSDTSIFQLKEVVAKRQGVPADQLRVIFAGKELQNHLTVQNCDLEQQSIVHIVQRPQRKSHETNASGGDKPQSTPEGSIWEPRSLTRVDLSSHILPADSVGLAVILDTDSKSDSEAARGPEAKPTYHSFFVYCKGPCHKVQPGKLRVQCGTCRQATLTLAQGPSCWDDVLIPNRMSGECQSPDCPGTRAEFFFKCGAHPTSDKDTSVALNLITNNSRSIPCIACTDVRNPVLVFQCNHRHVICLDCFHKYCVTRLNDRQFVHDAQLGYSLPCVAGCPNSLIKELHHFRILGEEQYNRYQQYGAEECVLQMGGVLCPRPGCGAGLLPEQGQKKVTCEGGNGLGCGFVFCRDCKEAYHEGECDSMFEASGATSQAYRVDQRAAEQARWEEASKETIKKTTKPCPRCNVPIEKNGGCMHMKCPQPQCKLEWCWNCGCEWNRACMGDHWFDV

Target: His-tagged phosphorylated ubiquitin (UniProt P0CG48 1-76, phosphoserine at 65)
Assay: pull-down; 1 nmol His-tagged pUb on Ni-NTA resin, 15 min with 1 nmol R0RBR variant; TBS, 2 mM BME, 0.02% Igepal 630; SDS–PAGE, Coomassie
Settings: both partners purified

binding result | Binder
binds | K369A Parkin R0RBR (domain or fragment, rat) PTYHSFFVYCKGPCHKVQPGKLRVQCGTCRQATLTLAQGPSCWDDVLIPNRMSGECQSPDCPGTRAEFFFKCGAHPTSDKDTSVALNLITNNSRSIPCIACTDVRNPVLVFQCNHRHVICLDCFHLYCVTRLNDRQFVHDAQLGYSLPCVAGCPNSLIKELHHFRILGEEQYNRYQQYGAEECVLQMGGVLCPRPGCGAGLLPEQGQKKVTCEGGNGLGCGFVFCRDCAEAYHEGECDSMFEASGATSQAYRVDQRAAEQARWEEASKETIKKTTKPCPRCNVPIEKNGGCMHMKCPQPQCKLEWCWNCGCEWNRACMGDHWFDV
binds | K161N Parkin R0RBR (domain or fragment, rat) PTYHSFFVYCKGPCHKVQPGNLRVQCGTCRQATLTLAQGPSCWDDVLIPNRMSGECQSPDCPGTRAEFFFKCGAHPTSDKDTSVALNLITNNSRSIPCIACTDVRNPVLVFQCNHRHVICLDCFHLYCVTRLNDRQFVHDAQLGYSLPCVAGCPNSLIKELHHFRILGEEQYNRYQQYGAEECVLQMGGVLCPRPGCGAGLLPEQGQKKVTCEGGNGLGCGFVFCRDCKEAYHEGECDSMFEASGATSQAYRVDQRAAEQARWEEASKETIKKTTKPCPRCNVPIEKNGGCMHMKCPQPQCKLEWCWNCGCEWNRACMGDHWFDV
binds | R314A Parkin R0RBR (domain or fragment, rat) PTYHSFFVYCKGPCHKVQPGKLRVQCGTCRQATLTLAQGPSCWDDVLIPNRMSGECQSPDCPGTRAEFFFKCGAHPTSDKDTSVALNLITNNSRSIPCIACTDVRNPVLVFQCNHRHVICLDCFHLYCVTRLNDRQFVHDAQLGYSLPCVAGCPNSLIKELHHFRILGEEQYNAYQQYGAEECVLQMGGVLCPRPGCGAGLLPEQGQKKVTCEGGNGLGCGFVFCRDCKEAYHEGECDSMFEASGATSQAYRVDQRAAEQARWEEASKETIKKTTKPCPRCNVPIEKNGGCMHMKCPQPQCKLEWCWNCGCEWNRACMGDHWFDV
binds | R275A Parkin R0RBR (domain or fragment, rat) PTYHSFFVYCKGPCHKVQPGKLRVQCGTCRQATLTLAQGPSCWDDVLIPNRMSGECQSPDCPGTRAEFFFKCGAHPTSDKDTSVALNLITNNSRSIPCIACTDVRNPVLVFQCNHRHVICLDCFHLYCVTRLNDAQFVHDAQLGYSLPCVAGCPNSLIKELHHFRILGEEQYNRYQQYGAEECVLQMGGVLCPRPGCGAGLLPEQGQKKVTCEGGNGLGCGFVFCRDCKEAYHEGECDSMFEASGATSQAYRVDQRAAEQARWEEASKETIKKTTKPCPRCNVPIEKNGGCMHMKCPQPQCKLEWCWNCGCEWNRACMGDHWFDV
binds | R271A Parkin R0RBR (domain or fragment, rat) PTYHSFFVYCKGPCHKVQPGKLRVQCGTCRQATLTLAQGPSCWDDVLIPNRMSGECQSPDCPGTRAEFFFKCGAHPTSDKDTSVALNLITNNSRSIPCIACTDVRNPVLVFQCNHRHVICLDCFHLYCVTALNDRQFVHDAQLGYSLPCVAGCPNSLIKELHHFRILGEEQYNRYQQYGAEECVLQMGGVLCPRPGCGAGLLPEQGQKKVTCEGGNGLGCGFVFCRDCKEAYHEGECDSMFEASGATSQAYRVDQRAAEQARWEEASKETIKKTTKPCPRCNVPIEKNGGCMHMKCPQPQCKLEWCWNCGCEWNRACMGDHWFDV
binds | R334A Parkin R0RBR (domain or fragment, rat) PTYHSFFVYCKGPCHKVQPGKLRVQCGTCRQATLTLAQGPSCWDDVLIPNRMSGECQSPDCPGTRAEFFFKCGAHPTSDKDTSVALNLITNNSRSIPCIACTDVRNPVLVFQCNHRHVICLDCFHLYCVTRLNDRQFVHDAQLGYSLPCVAGCPNSLIKELHHFRILGEEQYNRYQQYGAEECVLQMGGVLCPAPGCGAGLLPEQGQKKVTCEGGNGLGCGFVFCRDCKEAYHEGECDSMFEASGATSQAYRVDQRAAEQARWEEASKETIKKTTKPCPRCNVPIEKNGGCMHMKCPQPQCKLEWCWNCGCEWNRACMGDHWFDV

Target: T1, UbcH7 (E2 ubiquitin-conjugating enzyme)
Assay: NMR titration; 15N-UbcH7 with unlabeled Parkin constructs with or without pUb; 1H-15N correlation spectra, 293 K; 20 mM Tris–HCl, 120 mM NaCl, 2 mM DTT, pH 7.4; binding read as loss of signals
Settings: both partners purified

binding result | Binder
binds | W403A Parkin (enzyme, rat, UniProt Q9JK66 1-465, looked up) MIVFVRFNSSYGFPVEVDSDTSIFQLKEVVAKRQGVPADQLRVIFAGKELQNHLTVQNCDLEQQSIVHIVQRPQRKSHETNASGGDKPQSTPEGSIWEPRSLTRVDLSSHILPADSVGLAVILDTDSKSDSEAARGPEAKPTYHSFFVYCKGPCHKVQPGKLRVQCGTCRQATLTLAQGPSCWDDVLIPNRMSGECQSPDCPGTRAEFFFKCGAHPTSDKDTSVALNLITNNSRSIPCIACTDVRNPVLVFQCNHRHVICLDCFHLYCVTRLNDRQFVHDAQLGYSLPCVAGCPNSLIKELHHFRILGEEQYNRYQQYGAEECVLQMGGVLCPRPGCGAGLLPEQGQKKVTCEGGNGLGCGFVFCRDCKEAYHEGECDSMFEASGATSQAYRVDQRAAEQARAEEASKETIKKTTKPCPRCNVPIEKNGGCMHMKCPQPQCKLEWCWNCGCEWNRACMGDHWFDV
